Each block holds one molecule with its values, some of them ahead of it.
Key:
[1] = cited from earlier work
Procedure: In contrast, conversion took ~24 h in the absence of Cdc20^MIM‐111‐138 peptide (Fischer et al., [2022]) (Figures 2c and ...

O‐Mad2^R133A = molecular target: T1, O‐Mad2^R133A (Homo sapiens, UniProt Q13257, R133A); assay: Time-resolved NMR: O-Mad2 to C-Mad2 conversion of O-Mad2^R133A with MIM peptides; format: biochemical; conditions: 100 μM O-Mad2^R133A, 25°C
T1 construct: unable to collect equivalent data for full‐length O‐Mad2^R133A; His6-DoubleStrep-TEV (N); made in house
T1 sequence (Q13257 whole entry R133A): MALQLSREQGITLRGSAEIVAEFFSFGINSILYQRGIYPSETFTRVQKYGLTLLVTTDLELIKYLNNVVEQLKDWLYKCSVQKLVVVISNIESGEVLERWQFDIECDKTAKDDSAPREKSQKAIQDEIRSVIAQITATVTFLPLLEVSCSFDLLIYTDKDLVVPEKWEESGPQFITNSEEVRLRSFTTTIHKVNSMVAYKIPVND
Procedure: FIGURE 2 NMR fingerprinting of Mad2. (a) Structural orientations of Trp75 (on the αB helix) and Trp167 (on the “safety‐belt”) in Mad2 produce distinct indole NH resonances. […] NMR spectra for O‐Mad2^R133A and “empty” C‐Mad2^L13A/R133A and C‐Mad2^R133A:Cdc20^MIM‐111‐138 are from Fischer et al. ([2022]) (c) Mad2 conversion rates vary with different MIM peptides. Conversion was traced over 24 h at 25°C using the Trp75 and Trp167 side‐chain resonances as reporters. MIM peptides were added at two‐fold molar excess to Mad2 (100 μM). Each spectrum required 12 min of acquisition time, therefore the 15 min time‐points represent the earliest spectra in the time‐resolved series. The schematics show the conformation of Mad2 as indicated by the tryptophan side‐chain resonances. A black tick marks when conversion is considered complete. NMR data for O‐Mad2^R133A with and without Cdc20^MIM‐111‐138 shown are from Fischer et al. ([2022]). In the case of full‐length Cdc20, the MIM sequence is sequestered by an auto‐inhibitory intramolecular interaction within Cdc20 itself, which prevents it from being readily accessible for binding to C‐Mad2 (Piano et al., [2021]). Conversely, isolated MIM peptides lack this auto‐inhibitory mechanism, allowing them to bind directly to C‐Mad2 without obstruction.
To understand whether Mad2 conversion times are modulated by different C‐Mad2 ligands, we used time‐resolved NMR to determine the conversion time of 100 μM O‐Mad2^R133A at 25°C. The indole NH resonances of Trp75 and Trp167 were used as reporters (Figure 2b). […] In contrast, conversion took ~24 h in the absence of Cdc20^MIM‐111‐138 peptide (Fischer et al., [2022]) (Figures 2c and S4b). […] Other MIM peptides also accelerated the O‐Mad2 to C‐Mad2 conversion. […] In “empty” C‐Mad2, the β7/β8 hairpin is displaced to expose the β6 strand for pairing with the MIM peptide (Luo et al., [2004]) (Figure S3a).
Mad2 constructs were expressed in BL21 Star (DE3) cells (Thermo Fisher Scientific), co‐transformed with a pRARE plasmid (Merck). Uniformly labeled proteins were expressed in M9 minimal media (6 g/L Na2HPO4, 3 g/L KH2PO4, 0.5 g/L NaCl) supplemented with 1.7 g/L yeast nitrogen base without NH4Cl and amino acids (Sigma Y1251). 1 g/L ^15NH4Cl and 4 g/L glucose were supplemented for ^15N labeling. For ^13C/^15N double‐labeled samples, unlabeled glucose was replaced with 3 g/L ^13C‐glucose. Protein expression was induced with 0.4 mM IPTG at 16°C overnight. All samples were purified as previously described (Luo & Yu, [2005]; Mapelli et al., [2007]) and all O‐Mad2 variants were kept at 4°C during purification to prevent conversion to C‐Mad2. Prior to all NMR experiments, proteins were dialyzed into 20 mM HEPES, pH 7.0, 100 mM NaCl, 1 mM TCEP. ^13C/^15N‐labeled samples were used for backbone assignment, and all other experimental data were acquired on ^15N‐labeled samples. Proteins were kept on ice before NMR experiments to ensure all O‐Mad2 remained in the open state. For “bound” C‐Mad2, MIM peptides were added in 1:2 molar excess to ensure complete conversion.
All peptides were synthesized by Cambridge Research Biochemicals, UK. Peptides were dialyzed into 20 mM HEPES, pH 7.0, 100 mM NaCl, and 1 mM TCEP for NMR experiments. The sequences for the peptides used in this study are: Cdc20^MIM‐111‐138 ([…]), Cdc20^MIM‐123‐137 (FDVEEAKILRLSGKP), Cdc20^MIM‐123‐152 ([…]), Cdc20^MIM‐138‐152 (QNAPEGYQNRLKVLY), Mad1^MIM‐529‐550 ([…]), and MBP1^MIM (SWYSYPPPQRAV). […]

Mad2^∆β7/β8 = conditions: ref Yang et al., [2008]; cited from earlier work
Description: We reasoned that MIM binding to Mad2 is blocked until the β7/β8 hairpin is displaced (Figure 3c,d). To test this hypothesis, we generated a Mad2 variant with a deleted β7/β8 hairpin (Mad2^∆β7/β8: residues 1–165) (Figure 3e). Mad2^∆β7/β8 adopted a stable globular fold, and due to the absence of the C‐terminal residues, it was unable to adopt a closed conformation (Figure 3f). […] This is in agreement with a previous study that showe ...

C‐Mad2 = conditions: phage-display selected MIM peptide; ref Luo et al., [2002]; cited from earlier work
O‐Mad2 = conditions: NMR; ref Luo et al., [2004]; cited from earlier work
Procedure: To understand whether Mad2 conversion times are modulated by different C‐Mad2 ligands, we used time‐resolved NMR to determine the conversion time of 100 μM O‐Mad2^R133A at 25°C. The indole NH resonances of Trp75 and Trp167 were used as reporters (Figure 2b). […] In contrast, conversion took ~24 h in the absence of Cdc20^MIM‐111‐138 peptide (Fischer et al., [2022]) (Figures 2c and ...

[2] = experimentally determined; ref Zhao et al., [2016]; cited from earlier work
Mad2^R133A = molecular target: T2, Mad2^R133A (human, UniProt Q13257 1-205, R133A); assay: time-resolved NMR (series of 2D 1H,15N HSQC spectra); 100 μM 15N Mad2 variant, MIM peptide at two-fold molar excess, 25°C, 20 mM HEPES pH 7.0, 100 mM NaCl, 1 mM TCEP, 5% D2O; Trp75 and Trp167 indole NH resonances as reporters of the ligand-bound closed state; 12 min per spectrum, up to 24 h; conditions: both partners purified
T2 construct: Mad2, human, full-length, R133A; Tag is followed by a TEV site; 15N-labelled for NMR; Starts in the open state; also called O-Mad2^R133A; C-Mad2^R133A; source: E. coli BL21 Star (DE3) with pRARE, purified
T2 sequence (Q13257 whole entry R133A): as above

Mad2^LL = molecular target: T3, Mad2^LL (human, UniProt Q13257 1-205, residues 109–117 (TAKDDSAPR) with GSG); assay: as above; conditions: both partners purified
T3 construct: Mad2, human; wild-type construct with residues 109-117 of the β5-αC loop replaced by GSG; Tag is followed by a TEV site; also called loop-less Mad2 mutant; O-Mad2^LL; source: E. coli BL21 Star (DE3) with pRARE, purified
T3 sequence (Q13257 other isoform, or with tags, fused parts or gaps with the stated changes): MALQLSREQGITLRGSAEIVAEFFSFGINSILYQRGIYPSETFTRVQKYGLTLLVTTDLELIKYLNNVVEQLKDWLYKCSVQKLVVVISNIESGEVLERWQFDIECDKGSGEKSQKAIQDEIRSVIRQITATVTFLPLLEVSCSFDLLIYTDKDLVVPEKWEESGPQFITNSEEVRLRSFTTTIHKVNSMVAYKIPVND

Mad2^L13A/R133A = molecular target: T4, Mad2^L13A/R133A (human, UniProt Q13257 1-205, L13A | R133A); assay: as above; conditions: both partners purified
T4 construct: Mad2, human, full-length, L13A and R133A; made from the Mad2^R133A mutant; Adopts the closed state without ligand; Tag is followed by a TEV site; also called “empty” C-Mad2; C-Mad2^L13A/R133A; source: E. coli BL21 Star (DE3) with pRARE, purified
T4 sequence (Q13257 whole entry L13A/R133A): as the sequence (Q13257 whole entry R133A) above, with L13A counted along it

Mad2^LL/R133A = molecular target: T5, Mad2^LL/R133A (human, UniProt Q13257 1-205, residues 109–117 (TAKDDSAPR) with GSG | R133A); assay: time-resolved NMR (series of 1H,15N SOFAST-HMQC spectra, residue conversion rates); 200 μM Mad2 variant, 950 MHz, 25°C, 500 spectra of 5 min over 42 h; disappearance of O-Mad2 and appearance of C-Mad2:Cdc20^MIM backbone resonances; conditions: both partners purified
T5 construct: Mad2, human; Mad2^LL construct (residues 109-117 replaced by GSG) with Ala for Arg133; numbers count on wild-type Mad2; Tag is followed by a TEV site; also called O-Mad2^LL/R133A; source: E. coli BL21 Star (DE3) with pRARE, purified
T5 sequence (Q13257 other isoform, or with tags, fused parts or gaps with the stated changes): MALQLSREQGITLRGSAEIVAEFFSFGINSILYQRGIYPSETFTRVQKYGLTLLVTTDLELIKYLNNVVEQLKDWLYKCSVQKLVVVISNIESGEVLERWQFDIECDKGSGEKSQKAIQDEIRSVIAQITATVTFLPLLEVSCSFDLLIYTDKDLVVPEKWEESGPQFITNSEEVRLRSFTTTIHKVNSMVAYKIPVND

human wild-type Mad2 = molecular target: T6, human wild-type Mad2 (human, UniProt Q13257 1-205); assay: SEC; excess of Mad1^MIM peptide added to O-Mad2^WT, complex purified by size-exclusion chromatography; conditions: both partners purified
T6 construct: Mad2, human, wild type; limits follow from Mad2^Δβ7/β8 (residues 1-165), made from this construct by deleting residues 166-205; Tag is followed by a TEV site; 15N-labelled for NMR; Expressed and kept cold as the open state (O-Mad2); Construct described in Fischer et al. 2022; also called Mad2^WT; O-Mad2^WT; source: E. coli BL21 Star (DE3) with pRARE, purified
T6 sequence (Q13257 whole entry, the tested form may be a part): as the sequence (Q13257 whole entry R133A) above, with A133R counted along it

Molecule: O‐Mad2^R133A: dimerization‐deficient mutant Mad2^R133A in its open state
spontaneous conversion time to "empty" C-Mad2 ([1]; 100 μM, 25°C, absence of Cdc20^MIM-111-138 peptide, ref Fischer et al., [2022]): ~ 24 h

Molecule: Mad1 residues 540–551: Mad1 residues 540–551, earlier NMR study (Luo et al., [2004]) (TKVLHMSLNPTS; UniProt Q9Y6D9 540-551, looked up, fragment)
effect on O-Mad2 to C-Mad2 conversion, in words (O‐Mad2): facilitate this conversion

Molecule: FDVEEAKILRLSGKP [Cdc20^MIM‐123‐137, Cdc20^MIM spanning residues 123–137]
Mad2 conversion rate/efficiency, in words (O‐Mad2^R133A; time-resolved NMR, compared with other Cdc20^MIM peptides): triggered Mad2 conversion at a similar rate as Cdc20^MIM‐111‐138

Molecule: O‐Mad2: Mad2 in the open inactive state
melting temperature [2]: 69 °C
t1/2 of intrinsic O-Mad2 to C-Mad2 conversion, in words ([1]; in solution, ref Faesen et al., [2017], Lad et al., [2009], Luo et al., [2004], Simonetta et al.): multiple hours

B3: Cdc20^MIM-111-138 (peptide)
peptide: EHQKAWALNLNGFDVEEAKILRLSGKPQ
notes: source: synthetic peptide (Cambridge Research Biochemicals)
binding result (Mad2^LL): binds
binding result (Mad2^L13A/R133A): binds

B5: Mad1^MIM-529-550 (peptide)
peptide: RALQGDYDQSRTKVLHMSLNPT
notes: as for B3
binding result (Mad2^R133A): binds
binding result (human wild-type Mad2): binds

Further lines, with some results ahead:

time to complete Mad2 conversion (O‐Mad2^R133A; two-fold molar excess peptide, 20 mM HEPES pH 7.0, 100 mM NaCl, 1 mM TCEP, 5% D2O, Trp75/Trp167 indole NH reporters, 12 min per spectrum): ≤ 60 min
Molecule: SWYSYPPPQRAV [MBP1^MIM]
interaction with Mad2^∆β7/β8, in words (Mad2^∆β7/β8): weak interaction
C-Mad2 affinity, in words (C‐Mad2): enhanced C‐Mad2 affinity

binding result (Mad2^R133A): binds
B1: Cdc20^MIM-123-137 (peptide)
peptide: FDVEEAKILRLSGKP
notes: as for B3

binding result (Mad2^R133A): binds
B2: MBP1^MIM (peptide)
peptide: SWYSYPPPQRAV
notes: as for B3

binding result (Mad2^R133A): binds
binding result (Mad2^LL/R133A): binds
B4: Cdc20^MIM-123-152 (peptide)
peptide: FDVEEAKILRLSGKPQNAPEGYQNRLKVLY
notes: also called MIM peptide; source: synthetic peptide (Cambridge Research Biochemicals)

Source: paper PMC11947619, “Molecular mechanism of Mad2 conformational conversion promoted by the Mad2‐interaction motif of Cdc20” (Protein Science : A Publication of the Protein Society, 2025)
